Key:
[1] = molecular target: aged human serum albumin (human) (UniProt P02768); experiment: SEC + ELISA
[2] = molecular target: aged human serum albumin aggregates (human) (UniProt P02768); experiment: SEC + ELISA
[3] = molecular target: aged human serum albumin (human) (UniProt P02768); experiment: SEC

Substance | fold less Aß bound than by fHSA monomers [1] [times less] | fold less Aß bound than by fHSA monomers [2] [times less] | stoichiometry N (HSA molecules) [3]
amyloid beta peptide 1-42 | 4 | 12 | 
aged human serum albumin (from UniProt P02768 25-609) (natural protein) |  |  | 8

— paper doi:10.1101/2022.05.03.490418
